Data on one molecule can be found in patent publication US20150322163A1 (OREGON HEALTH AND SCIENCE UNIVERSITY, published 2015).

The target of one experiment is Prekallikrein (PK) (UniProt P03952 20-638, limits assumed). Kind of experiment: Western blot.
The next experiment concerns the target T1, human factor XI (human, UniProt P03951 19-625).
T1 construct: Disulfide-bonded homodimer of about 160 kDa; also called FXI; human FXI
Put plainly: Western blot of plasma.

In a further experiment the target is baboon factor XI (baboon (Papio anubis)). Put plainly: cell-based or functional assay.

T1 sequence (P03951 19-625 I95Y limits assumed): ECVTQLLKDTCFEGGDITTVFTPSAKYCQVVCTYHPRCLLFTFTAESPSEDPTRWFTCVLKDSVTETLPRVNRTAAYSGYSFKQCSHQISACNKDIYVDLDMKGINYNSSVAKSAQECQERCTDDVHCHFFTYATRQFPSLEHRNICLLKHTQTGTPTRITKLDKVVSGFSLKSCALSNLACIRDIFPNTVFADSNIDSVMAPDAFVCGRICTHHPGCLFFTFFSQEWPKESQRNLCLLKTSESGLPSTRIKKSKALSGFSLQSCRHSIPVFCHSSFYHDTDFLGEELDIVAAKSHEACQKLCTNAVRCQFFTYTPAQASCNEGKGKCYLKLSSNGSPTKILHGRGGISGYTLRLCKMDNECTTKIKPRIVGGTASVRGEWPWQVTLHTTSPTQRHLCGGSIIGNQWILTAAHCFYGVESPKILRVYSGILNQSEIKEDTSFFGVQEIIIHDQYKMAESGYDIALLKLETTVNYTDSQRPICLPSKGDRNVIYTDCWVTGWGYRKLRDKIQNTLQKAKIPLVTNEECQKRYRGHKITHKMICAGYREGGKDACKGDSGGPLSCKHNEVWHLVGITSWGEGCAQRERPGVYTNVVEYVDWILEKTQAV
Sequence of Prekallikrein (PK) (P03952 20-638 limits assumed): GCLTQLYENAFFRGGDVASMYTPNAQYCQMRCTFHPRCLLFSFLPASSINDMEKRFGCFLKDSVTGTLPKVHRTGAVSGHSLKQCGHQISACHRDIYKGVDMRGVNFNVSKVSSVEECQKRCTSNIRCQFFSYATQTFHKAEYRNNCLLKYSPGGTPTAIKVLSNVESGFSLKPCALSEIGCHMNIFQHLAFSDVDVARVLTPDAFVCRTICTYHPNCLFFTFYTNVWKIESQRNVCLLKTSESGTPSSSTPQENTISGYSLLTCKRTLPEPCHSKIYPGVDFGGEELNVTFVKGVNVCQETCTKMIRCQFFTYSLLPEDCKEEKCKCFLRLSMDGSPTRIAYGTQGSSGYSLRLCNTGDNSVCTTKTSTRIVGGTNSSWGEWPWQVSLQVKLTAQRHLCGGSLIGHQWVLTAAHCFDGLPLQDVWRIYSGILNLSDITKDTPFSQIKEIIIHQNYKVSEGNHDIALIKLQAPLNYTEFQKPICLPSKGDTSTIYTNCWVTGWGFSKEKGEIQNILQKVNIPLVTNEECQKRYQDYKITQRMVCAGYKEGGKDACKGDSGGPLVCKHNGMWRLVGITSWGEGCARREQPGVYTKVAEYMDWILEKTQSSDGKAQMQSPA

B1: anti-factor XI monoclonal antibody 1A6 (aXIMab) (antibody, V domains shown)
VH: QVTLKESGPGILKPSQTLSLTCSFSGFSLSTSGMGVGWIRQPSGKGLEWLAHIWWDDDKYYNPSLKSQLTISKDTSRNQVFLKITSVDAADTATYYCARKRSSVVAHYYAMDYWGQGTSVTVSS
VL: DIVLTQSPASLAVSLGQRATISCKASQSVDYDGDSYLNWYQQKPGQPPKLLIYAASNLESGIPARFSGSGSGTDFTLNIHPVEEEDAATYYCQQSNGDPWTFGGGTKLEIK
notes: also called anti-FXI monoclonal antibody
Consider B1, for which the binding result with Prekallikrein (PK) was “no binding”; in the experiment with human factor XI, “binds”. In addition, the “IC50 in a clotting assay using FXI deficient human plasma with serial dilutions of NBP as standards” value with baboon factor XI was determined as 2.5 nM.
